Consider 102 sequences from the supplement of paper PMC5949888.

Some results are limits rather than exact numbers.

The test system of the data set is Saccharomyces cerevisiae PS128 hsf1 delta, HSF1(1-493) fusion. In words: growth estimate (transactivation domain function in HSF1 fusion, heat-shock survival) (a.u. (slope of normalised read count over time)); higher = stronger growth at 37°C, i.e. more transactivation activity. To be noted: library: design library. In outline:
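Transactivation-domain oligos were designed and fused to a truncated yeast HSF1 (amino acids 1–493), then expressed in a yeast strain lacking hsf1. Replica plating onto –trp 5-FOA plates was followed by incubation at 30°C or 37°C for 0, 2, 4, 6 and 8 days. Inserts were amplified by PCR and sequenced on an Illumina MiSeq as six barcoded replicates from a single experiment. The growth estimate is the slope of a robust linear fit over time of read counts normalised to sample totals and to starting count.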
As to MLSSHGFSVDRSALLDLFSP, the growth estimate is -0.204.

As for MLSSHGFSVDTGALLDLFSP, the growth estimate was -0.207. MLSSHGFSVDTKALLDLFSP: the growth estimate is -0.145. MLSSHGFSVDTPALLDLFSP: the growth estimate is -0.228. For the sequence MLSSHGFSVDTSAALDLFSP, the growth estimate was -0.124. Turning to MLSSHGFSVDTSAGLDLFSP, the growth estimate was -0.207.

In the case of MLSSHGFSVDTSAKLDLFSP, the growth estimate is -0.237. MLSSHGFSVDTSALADLFSP: the growth estimate was -0.191. To MLSSHGFSVDTSALGDLFSP belongs -0.213; to MLSSHGFSVDTSALKDLFSP, below -0.25. On to MLSSHGFSVDTSALLALFSP, for which the growth estimate was -0.21. Take MLSSHGFSVDTSALLDGFSP: the growth estimate is -0.227. To MLSSHGFSVDTSALLDKFSP belongs -0.227; to MLSSHGFSVDTSALLDLASP, -0.145. MLSSHGFSVDTSALLDLFAP: the growth estimate is -0.0921. Take MLSSHGFSVDTSALLDLFGP: the growth estimate was -0.17. In the case of MLSSHGFSVDTSALLDLFKP, the growth estimate was -0.179. For MLSSHGFSVDTSALLDLFPP, the growth estimate was -0.106. For MLSSHGFSVDTSALLDLFRP, the growth estimate is -0.22. With MLSSHGFSVDTSALLDLFSA, the growth estimate was -0.127.

MLSSHGFSVDTSALLDLFSG: the growth estimate was -0.181. Regarding MLSSHGFSVDTSALLDLFSK, the growth estimate was -0.245. As to MLSSHGFSVDTSALLDLFSP, the growth estimate was 0.0347. As for MLSSHGFSVDTSALLDLGSP, the growth estimate was -0.228.

For the sequence MLSSHGFSVDTSALLDLKSP, the growth estimate was -0.096. As for MLSSHGFSVDTSALLDLPSP, the growth estimate was below -0.25. To MLSSHGFSVDTSALLDLRSP belongs below -0.25. In the case of MLSSHGFSVDTSALLDPFSP, the growth estimate was below -0.25. For the sequence MLSSHGFSVDTSALLDRFSP, the growth estimate was -0.229.

Turning to MLSSHGFSVDTSALLGLFSP, the growth estimate is -0.207. To MLSSHGFSVDTSALLKLFSP belongs -0.216; to MLSSHGFSVDTSALLPLFSP, -0.158; to MLSSHGFSVDTSALLRLFSP, -0.193. To MLSSHGFSVDTSALPDLFSP belongs -0.23; to MLSSHGFSVDTSALRDLFSP, -0.196; to MLSSHGFSVDTSAPLDLFSP, -0.15. For the sequence MLSSHGFSVDTSGLLDLFSP, the growth estimate is 0.0909.

Take MLSSHGFSVDTSKLLDLFSP: the growth estimate was -0.143. To MLSSHGFSVDTSPLLDLFSP belongs -0.191; to MLSSHGFSVDTSRLLDLFSP, -0.171; to MLSSHGFSVGTSALLDLFSP, -0.248. Take MLSSHGFSVKTSALLDLFSP: the growth estimate is -0.0119.

As to MLSSHGFSVPTSALLDLFSP, the growth estimate is -0.204. Turning to MLSSHGGSVDTSALLDLFSP, the growth estimate was -0.112. In the case of MLSSHGPSVDTSALLDLFSP, the growth estimate is -0.216. With MLSSHGRSVDTSALLDLFSP, the growth estimate is -0.248.

MLSSHPFSVDTSALLDLFSP: the growth estimate is -0.195. For the sequence MLSSHRFSVDTSALLDLFSP, the growth estimate is -0.227. With MLSSKGFSVDTSALLDLFSP, the growth estimate was -0.115. For the sequence MLSSPGFSVDTSALLDLFSP, the growth estimate was 0.169. Regarding MPSSHGFSVDTSALLDLFSP, the growth estimate is 0.171. MRSSHGFSVDTSALLDLFSP: the growth estimate was -0.241. As to PADDIWEELLSEDL, the growth estimate was 2.99. Turning to PAFPGIELQELQELQALLQQ, the growth estimate is -0.0264.

On to PAPDTQDDFLKWWRSEEAQ, for which the growth estimate is 0.0134. As for PDDDEFSLWDSML, the growth estimate was 1.67.

On to PDLYSILWSDVY, for which the growth estimate is -0.202. For the sequence PEAPGIELQELQELQALLQQ, the growth estimate is below -0.25. On to PEFAGIELQELQELQALLQQ, for which the growth estimate was -0.244.

Turning to PEFGGIELQELQELQALLQQ, the growth estimate was below -0.25.

With PEFKGIELQELQELQALLQQ, the growth estimate is below -0.25. To PEFPAIELQELQELQALLQQ belongs -0.181. As for PEFPGIALQELQELQALLQQ, the growth estimate was -0.223. Consider PEFPGIEAQELQELQALLQQ, for which the growth estimate is -0.167. With PEFPGIEGQELQELQALLQQ, the growth estimate was below -0.25. Consider PEFPGIEKQELQELQALLQQ, for which the growth estimate was 0.269.

For the sequence PEFPGIELAELQELQALLQQ, the growth estimate is -0.181. Turning to PEFPGIELKELQELQALLQQ, the growth estimate was -0.217. As for PEFPGIELQALQELQALLQQ, the growth estimate is 0.169. For PEFPGIELQELAELQALLQQ, the growth estimate is 0.131. Take PEFPGIELQELGELQALLQQ: the growth estimate is -0.0807.

On to PEFPGIELQELKELQALLQQ, for which the growth estimate was below -0.25. In the case of PEFPGIELQELPELQALLQQ, the growth estimate was -0.22.

As for PEFPGIELQELQALQALLQQ, the growth estimate is below -0.25. To PEFPGIELQELQEKQALLQQ belongs below -0.25; to PEFPGIELQELQELAALLQQ, 0.178. As to PEFPGIELQELQELGALLQQ, the growth estimate was -0.221. On to PEFPGIELQELQELKALLQQ, for which the growth estimate was -0.22.

In the case of PEFPGIELQELQELPALLQQ, the growth estimate was below -0.25. With PEFPGIELQELQELQAALQQ, the growth estimate is -0.23. Consider PEFPGIELQELQELQALKQQ, for which the growth estimate is -0.232. To PEFPGIELQELQELQALLAQ belongs below -0.25; to PEFPGIELQELQELQALLGQ, -0.226; to PEFPGIELQELQELQALLKQ, 0.0452.

PEFPGIELQELQELQALLQA: the growth estimate is -0.246. As for PEFPGIELQELQELQALLQG, the growth estimate is -0.0522. Take PEFPGIELQELQELQALLQK: the growth estimate was -0.125. PEFPGIELQELQELQALLQP: the growth estimate was -0.215.

For PEFPGIELQELQELQALLQQ, the growth estimate was -0.0979. To PEFPGIELQELQELQALLRQ belongs -0.245; to PEFPGIELQELQELQALPQQ, below -0.25.

Take PEFPGIELQELQELQALRQQ: the growth estimate was -0.168. Regarding PEFPGIELQELQELQAPLQQ, the growth estimate is below -0.25. PEFPGIELQELQELQGLLQQ: the growth estimate is below -0.25. Turning to PEFPGIELQELQELQKLLQQ, the growth estimate is below -0.25. As for PEFPGIELQELQELQRLLQQ, the growth estimate is -0.177. With PEFPGIELQELQELRALLQQ, the growth estimate was below -0.25.

Regarding PEFPGIELQELQERQALLQQ, the growth estimate is below -0.25. For the sequence PEFPGIELQELQGLQALLQQ, the growth estimate was below -0.25. On to PEFPGIELQELQRLQALLQQ, for which the growth estimate was below -0.25.

In the case of PEFPGIELQERQELQALLQQ, the growth estimate is -0.248.

For PEFPGIELQPLQELQALLQQ, the growth estimate was -0.243.
